Results as given in IntAct's records for PubMed 29610859.

Target: ubql1_human UBQLN1 (UniProt Q9UMX0)
Sequence (Q9UMX0 whole entry): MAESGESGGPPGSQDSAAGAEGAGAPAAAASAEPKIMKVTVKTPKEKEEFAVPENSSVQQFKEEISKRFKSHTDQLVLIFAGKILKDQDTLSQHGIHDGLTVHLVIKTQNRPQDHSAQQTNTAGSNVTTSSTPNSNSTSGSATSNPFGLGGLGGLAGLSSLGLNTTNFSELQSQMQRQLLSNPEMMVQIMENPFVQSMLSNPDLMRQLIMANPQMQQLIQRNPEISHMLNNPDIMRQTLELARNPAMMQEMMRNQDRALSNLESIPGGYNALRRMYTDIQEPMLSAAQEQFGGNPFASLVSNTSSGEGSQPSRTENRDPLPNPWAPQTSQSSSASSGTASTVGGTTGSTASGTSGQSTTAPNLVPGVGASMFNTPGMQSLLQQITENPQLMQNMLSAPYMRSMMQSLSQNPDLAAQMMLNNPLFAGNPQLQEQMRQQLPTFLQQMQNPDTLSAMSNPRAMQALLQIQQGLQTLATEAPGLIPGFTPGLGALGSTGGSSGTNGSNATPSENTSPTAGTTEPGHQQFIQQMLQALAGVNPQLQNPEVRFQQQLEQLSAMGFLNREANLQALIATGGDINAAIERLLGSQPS

Cytochrome c oxidase subunit 1 (Homo sapiens) (from UniProt P00395) V83I
effect of a mutation on the interaction: with no effect
